Source: US20250368742A1 (D2M BIOTHERAPEUTICS, published 2025)
Numbering of substitutions follows the chain as printed. Like-named read-outs stand apart in the source and are kept apart here.

B1: h36B3GA (antibody, V domains shown)
VH: QVQLVQSGAEVKKPGASVKVSCKASGYAFTKYNFYWVRQAPGQGLEWIGYIDPYFGGTVYNQKFKGKATLTVDKSTSTAYMELRSLRSDDTAVYYCATTDAYSLFTYWGQGTLVTVSS
VL: DIQMTQSPSSLSASVGDRVTITCRASQDISNYLNWYQQTPGKAVKLLIYYTSRLHSGVPSRFSGSGSGTDYTLTISSLQPEDIATYFCLQGNTLPFTFGQGTKLEIK
notes: humanized #36 variant; the text writes h36B3(GA); copies: 2 + 2
B2: h36B3GS (antibody, V domains shown)
VH: B1 VH with A101S
VL: B1 VL
notes: humanized #36 variant; the text writes h36B3(GS); copies: 2 + 2
B3: D2M001-001 (antibody, V domains shown)
VH: QVQLVQSGAEVKKPGSSVKVSCKASGYTFSHHSISWVRQAPGQGLEWIGGIYPGKIKTNYAQKFQGRATLTADKSTSTAYMELSSLRSEDTAVYYCATLYGNYEAYWGQGTLVTVSS
VL: DIQMTQSPSSLSASVGDRVTITCRASENIYGALNWYQQKPGKSPKLLIYGTTSLQSGVPSRFSGSGSGRDYTLTISSLQPEDFATYYCQNVLTTPPWTFGGGTKVEIK
notes: only the CDRs are tied to the name in the text; copies: 2 + 2
B4: MICA008-ECD-HISAvi (ligand)
chain: EPHSLRYNLTVLSWDGSVQSGFLAEVHLDGQPFLRYDRQKCRAKPQGQWAEDVLGNKTWDRETRDLTGNGKDLRMTLAHIKDQKEGLHSLQEIRVCEIHEDNSTRSSQHFYYDGELFLSQNLETEEWTVPQSSRAQTLAMNVRNFLKEDAMKTKTHYHAMHADCLQELRRYLESGVVLRRTVPPMVNVTRSEASEGNITVTCRASSFYPRNIILTWRQDGVSLSHDTQQWGDVLPDGNGTYQTWVATRICRGEEQRFTCYMEHSGNHSTHPVPSGKVLVLQSHWQHHHHHHGLNDIFEAQKIEWHE
notes: Two sources under one name in the two kinetic assays; also called MICA008 polypeptide
B5: MICA002-ECD-HISAvi (ligand)
chain: B4 chain with W14G, Y36C, V129M, E173K, S206G, R210W, I213T, T215S, R251Q
notes: also called MICA002 polypeptide
B6: MICB005-ECD-HISAvi (ligand)
chain: EPHSLRYNLMVLSQDGSVQSGFLAEGHLDGQPFLRYDRQKRRAKPQGQWAEDVLGAKTWDTETEDLTENGQDLRRTLTHIKDQKGGLHSLQEIRVCEIHEDSSTRGSRHFYYDGELFLSQNLETQESTVPQSSRAQTLAMNVTNFWKEDAMKTKTHYRAMQADCLQKLQRYLKSGVAIRRTVPPMVNVTCSEVSEGNITVTCRASSFYPRNITLTWRQDGVSLSHNTQQWGDVLPDGNGTYQTWVATRIRQGEEQRFTCYMEHSGNHGTHPVPSGKALVLQSQRTDHHHHHHGLNDIFEAQKIEWHE
notes: Two sources under one name in the two kinetic assays; also called MICB005 polypeptide
B7: 13A9 (antibody, human IgG1, kappa, V domains shown)
VH: QVQLQQSGAELVRPGTSVKVSCKASGYAFTNYLIEWVKQRPGQGLEWIGAINPGSGATNYNEKFKDKARLTADKSSNTAYLQFSSLTSDDSAVYFCARFLGNYFDNWGQGATLTVSS
VL: DIQMTQSPASLSASVGETVTITCRASGNIHSYLAWYQQKQGKSPQLLVYYAETLADGVPSRFSGRGSGTQYSLKINSLQPEDFGSYFCQQFWTTPYTFGGGTKVEIKR

Assays:
human MICA002 on cells [1] = biological target: T1, human MICA002 on cells (human); test: flow cytometry, CHO-MICA002 cells
T1 chain: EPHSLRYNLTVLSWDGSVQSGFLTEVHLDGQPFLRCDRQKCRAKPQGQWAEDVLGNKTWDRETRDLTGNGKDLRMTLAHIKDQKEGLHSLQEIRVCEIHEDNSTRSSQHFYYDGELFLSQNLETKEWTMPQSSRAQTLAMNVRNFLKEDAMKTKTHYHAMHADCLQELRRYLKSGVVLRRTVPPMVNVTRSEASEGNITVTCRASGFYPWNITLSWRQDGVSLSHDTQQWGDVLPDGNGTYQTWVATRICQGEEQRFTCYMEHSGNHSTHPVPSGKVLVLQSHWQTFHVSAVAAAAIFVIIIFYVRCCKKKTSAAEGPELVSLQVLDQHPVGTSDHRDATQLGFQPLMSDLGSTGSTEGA

human MICA002 on cells [2] = biological target: T1, human MICA002 on cells; test: flow cytometry, CHO-MICA002 cells
human MICA002 on cells [3] = biological target: T1, human MICA002 on cells; test: flow cytometry, CHO-MICA002 cells
human MICB005 on cells [4] = biological target: T2, human MICB005 on cells (human); test: flow cytometry, CHO-MICB005 cells
T2 construct: whole, on cells; also called CHO-MICB005; C1R-MICB005

human MICA004 on cells [5] = biological target: T3, human MICA004 on cells (human); test: flow cytometry, CHO-MICA004 cells
T3 construct: whole, on cells; also called CHO-MICA004; C1R-MICA004
T3 sequence (Q29983 whole entry): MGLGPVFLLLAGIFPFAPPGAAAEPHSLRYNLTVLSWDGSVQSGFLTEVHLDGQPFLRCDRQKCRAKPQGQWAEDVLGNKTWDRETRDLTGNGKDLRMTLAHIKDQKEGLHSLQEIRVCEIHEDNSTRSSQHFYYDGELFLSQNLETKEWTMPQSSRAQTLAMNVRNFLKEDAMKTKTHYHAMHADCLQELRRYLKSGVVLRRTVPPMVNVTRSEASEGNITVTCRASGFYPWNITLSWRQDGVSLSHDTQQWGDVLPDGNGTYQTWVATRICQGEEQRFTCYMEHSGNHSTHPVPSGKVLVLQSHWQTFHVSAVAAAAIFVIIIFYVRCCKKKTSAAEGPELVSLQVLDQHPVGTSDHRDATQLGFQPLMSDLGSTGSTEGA

MICA004-ECD-HISAvi [6] = biological target: T4, MICA004-ECD-HISAvi (human); test: SPR (Carterra); antibody captured by anti-human Fc, monomeric ECD antigen injected
T4 construct: also called MICA004 polypeptide
T4 chain: B4 chain with L122V, G175S, T181R, I213T, R251Q
Protocol: (§1) The dissociation kinetics were monitored for approximately 10 minutes. The chip surface was regenerated between binding cycles with 10 mM glycine HCl, pH 1.7. Binding kinetics were analyzed using software supplied by the manufacturer.

MICA002-ECD-HISAvi [7] = biological target: B5; test: as above
Protocol: as §1

MICB005-ECD-HISAvi [8] = biological target: B6; test: as above
Protocol: as §1

MICA008-ECD-HISAvi [9] = biological target: B4; test: as above
Protocol: as §1

NKG2D-His = biological target: T5, NKG2D-His (UniProt P26718 78-216, limits assumed); test: ELISA: NKG2D-His coated, MICA/B-ECD titrated, detection 1D5 + anti-hFc-HRP
T5 sequence (looked up): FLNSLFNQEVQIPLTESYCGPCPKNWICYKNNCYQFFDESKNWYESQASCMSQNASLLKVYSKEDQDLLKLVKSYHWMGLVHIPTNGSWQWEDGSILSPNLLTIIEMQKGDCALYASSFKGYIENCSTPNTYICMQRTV

MICA004-ECD-HISAvi [10] = biological target: T4, MICA004-ECD-HISAvi; test: BLI (GatorPrime); antibody on anti-hIgG Fc probe, monomeric antigen in solution;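 also: binding kinetics of anti-MICA/B antibodies measured by biolayer interferometry, with dissociation followed for about 10 min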
Protocol: (§2) The binding kinetics of the antibodies were also measured using the GatorPrime BLI (Biolayer Interferometry) system (Gator Bio, USA). Specifically, the anti-MICA/B antibodies were loaded with HFC (Anti-hIgG Fc, Gator Bio, Cat #: 160003). […] The dissociation kinetics were monitored for approximately 10 minutes. The probes were regenerated between binding cycles with Regeneration Buffer (Gator Bio, Cat #: 120012). Binding kinetics were analyzed using software supplied by the manufacturer.

[11] = biological target: T6, Cynomolgus monkey MICA (cynoMICA) (Cynomolgus monkey (Macaca fascicularis)); test: as above
T6 construct: also called cyno monkey MICA; cyno MIC protein
Protocol: as §2

MICA002-ECD-HISAvi [12] = biological target: B5; test: as above
Protocol: as §2

MICB005-ECD-HISAvi [13] = biological target: B6; test: as above
Protocol: as §2

MICA009Avi = biological target: T7, MICA009Avi (human); test: as above
T7 construct: extracellular domain
Protocol: as §2

MICA008-ECD-HISAvi [14] = biological target: B4; test: as above
Protocol: as §2

human MICA008 on cells [15] = biological target: T8, human MICA008 on cells (human); test: flow cytometry, CHO-MICA008 cells
T8 construct: whole, on cells; also called CHO-MICA008; C1R-MICA008
T8 sequence (Q29983 whole entry): as the sequence (Q29983 whole entry) above
Protocol: (§3) IgG1 is an isotype control (IgG). The antibody binding signals of APC (gMFI) to MICA/B were measured by flow cytometry.
(§4) After an incubation time of 30 minutes, the plate was centrifuged and cells were washed with PBS three times. […] After mixing for 30 minutes at room temperature, cells were washed with PBS twice. Fluorescent signal was detected and quantified by flow cytometry (Attune™ CytPix™, ThermoFisher) within the population of live cells (viability dye PI negative).

human MICA002 on cells [16] = biological target: T1, human MICA002 on cells; test: flow cytometry, CHO-MICA002 cells
Protocol: CHO-MICA002 cells were incubated with titrated anti-MICA/B antibodies and then APC-labeled anti-human Fc antibody. […] The antibody binding signals of APC (gMFI) to MICA/B were measured by flow cytometry.
as §4

human MICA008 on cells [17] = biological target: T8, human MICA008 on cells; test: flow cytometry, HeLa cells (MICA008)
Protocol: as §3, §4

human MICB005 on cells [18] = biological target: T2, human MICB005 on cells; test: flow cytometry, CHO-MICB005 cells; remark: listed apart in the source
Protocol: as §3, §4

human MICA004 on cells [19] = biological target: T3, human MICA004 on cells; test: flow cytometry, CHO-MICA004 cells; remark: listed apart in the source
Protocol: as §3, §4

MICA004-ECD-HISAvi [20] = biological target: T4, MICA004-ECD-HISAvi; test: SPR (Carterra); antibody captured by anti-human Fc, monomeric ECD antigen injected
Protocol: as §1

MICA002-ECD-HISAvi [21] = biological target: B5; test: as above
Protocol: as §1

MICB005-ECD-HISAvi [22] = biological target: B6; test: as above; remark: listed apart in the source
Protocol: as §1

MICA008-ECD-HISAvi [23] = biological target: B4; test: as above
Protocol: as §1

Question: For B1, which “EC50 (read off the curve)” value (human MICA002 on cells [1]) is on record?
Answer: ~0.6 µg/mL

Question: How did the EC50 (human MICA002 on cells [2]) turn out when B2 was run?
Answer: 0.6 µg/mL

Question: How did the EC50 (human MICA002 on cells [3]) turn out when B3 was run?
Answer: 1.26 µg/mL

Question: And the EC50 (human MICB005 on cells [4])?
Answer: 2.77 µg/mL

Question: What about the EC50 (human MICA004 on cells [5]) of the same binder?
Answer: 7.12 µg/mL

Question: And the Kd (MICA004-ECD-HISAvi [6])?
Answer: 156 nM

Question: What about the Kd (MICA002-ECD-HISAvi [7]) of the same binder?
Answer: 61.4 nM

Question: And the Kd (MICB005-ECD-HISAvi [8])?
Answer: 158 nM

Question: And the Kd (MICA008-ECD-HISAvi [9])?
Answer: 255 nM

Question: B4 was tested. Which “EC50 (read off the curve)” value (NKG2D-His) did it give?
Answer: ~0.1 µg/mL

Question: B5 was tested. Which “EC50 (read off the curve)” value (NKG2D-His) did it give?
Answer: ~0.2 µg/mL

Question: How did the “EC50 (read off the curve)” value (NKG2D-His) turn out when B6 was run?
Answer: ~0.02 µg/mL

Question: Which Kd (MICA004-ECD-HISAvi [10]) does the source give for B7 here?
Answer: 1.39 nM

Question: And the Kd [11]?
Answer: 13.9 nM

Question: And the Kd (MICA002-ECD-HISAvi [12])?
Answer: 0.0956 nM

Question: And the Kd (MICB005-ECD-HISAvi [13])?
Answer: 0.425 nM

Question: And the Kd (MICA009Avi)?
Answer: 0.262 nM

Question: What about the Kd (MICA008-ECD-HISAvi [14]) of the same binder?
Answer: 0.504 nM

Question: And the EC50 (human MICA008 on cells [15])?
Answer: 2.08 µg/mL

Question: What about the EC50 (human MICA002 on cells [16]) of the same binder?
Answer: 3.56 µg/mL

Question: And the EC50 (human MICA008 on cells [17])?
Answer: 4.09 µg/mL

Question: What about the Kd (MICA004-ECD-HISAvi [6]) of the same binder?
Answer: 12.8 nM

Question: And the Kd (MICA002-ECD-HISAvi [7])?
Answer: 0.313 nM

Question: And the Kd (MICB005-ECD-HISAvi [8])?
Answer: 0.486 nM

Question: And the Kd (MICA008-ECD-HISAvi [9])?
Answer: 1 nM

Question: What about the EC50 (human MICB005 on cells [18]) of the same binder?
Answer: 1.71 µg/mL

Question: And the EC50 (human MICA004 on cells [19])?
Answer: 7.25 µg/mL

Question: And the Kd (MICA004-ECD-HISAvi [20])?
Answer: 5.02 nM

Question: And the Kd (MICA002-ECD-HISAvi [21])?
Answer: 1.67 nM

Question: And the Kd (MICB005-ECD-HISAvi [22])?
Answer: 4.38 nM

Question: What about the Kd (MICA008-ECD-HISAvi [23]) of the same binder?
Answer: 23.2 nM
